Measurements published in patent publication US20240409619A1.

Target: SARS-COV-2 spike protein, isolate USA-WA1/2020, on pseudotyped virus (SARS-COV-2) (UniProt P0DTC2)
Test: cell-based or functional assay

**Q.** DMAb 2130_FcTM (antibody) was tested. Which serum potency (IC50) against USA-WA1/2020 pseudovirus did it give?
**A.** 1 to 2 ng/mL
